Values joined by “and” are separate entries in the source; they are usually repeats but may differ in a detail not shown here. Identical values can stand only once. Square brackets hold non-standard residues; d marks the D form. Ends that are not written are not given here.
Biological target: Ac-VQIINK-NH2 (SEQ ID NO: 23) (N-terminal acetyl (Ac); C-terminal amide (NH2))
Experiment: cell-based or functional assay

In order of rising “VQIINK Inhibition IC50” value:
1. [dL][dE][dI][dK][dI][dR][dH][dW] [leikirhw]  1.15 µm
2. [dF][dH][dI][dH][dI][dK][dF][dH] [fhihikfh]  1.16 µm
3. [dF][dE][dI][dR][dL][dW][dH][dH] [feirlwhh]  1.17 µm
4. [dW][dR][dI][dW][dI][dR][dY][dW] [wriwiryw]  1.2 µm
5. [dF][dK][dL][dK][dL][dR][dW] [fklklrw]  1.2 µm
6. [dR][dL][dK][dV][dR][dW][dW][dW] [rlkvrwww]  1.21 µm
7. [dL][dK][dI][dR][dI][dR][dF][dH] [lkirirfh]  1.24 µm
8. [dW][dL][dR][dV][dQ][dV][dK][dL][dW] [wlrvqvklw]  1.25 µm
9. [dF][dE][dL][dH][dI][dK][dW][dH] [felhikwh]  1.29 µm
10. [dW][dK][dV][dN][dV][dR][dL][dW] [wkvnvrlw]  1.29 µm
11. [dF][dK][dL][dK][dL][dW][dW] [fklklww]  1.3 µm
12. [dF][dK][dI][dR][dI][dK][dW][dH] [fkirikwh]  1.3 µm
13. [dW][dR][dL][dR][dI][dW][dW] [wrlriww]  1.34 µm
14. [dW][dR][dF][dH][dI][dH][dF][dY] [wrfhihfy]  1.35 µm
15. [dW][dR][dL][dK][dV][dR][dW][dL] [wrlkvrwl]  1.37 µm
16. [dL][dE][dF][dE][dL][dK][dY][dW] [lefelkyw]  1.38 µm
17. [dW][dR][dL][dN][dV][dN][dW] [wrlnvnw]  1.38 µm
18. [dF][dR][dL][dR][dI][dW][dW] [frlriww]  1.4 µm
19. [dL][dK][dI][dL][dI][dH][dY][dH] [lkilihyh]  1.41 µm
20. [dF][dK][dI][dE][dL][dH][dW][dH] [fkielhwh]  1.41 µm
21. [dL][dK][dI][dR][dI][dA][dY] [lkiriay]  1.41 µm
22. [dW][dK][dL][dK][dL][dW][dW][dW] [wklklwww]  1.44 µm
23. [dL][dK][dI][dR][dI][dL][dY][dH] [lkirilyh]  1.46 µm
24. [dF][dR][dI][dK][dI][dR][dW] [frikirw]  1.47 µm
25. [dL][dR][dV][dQ][dV][dR][dL] [lrvqvrl]  1.48 µm
26. [dF][dR][dI][dK][dL][dK][dW][dH] [friklkwh]  1.52 µm
27. [dW][dK][dV][dW][dV][dR][dY][dW] [wkvwvryw]  1.53 µm
28. [dL][dK][dI][dR][dI][dF][dY][dH] [lkirifyh]  1.53 µm
29. [dW][dR][dL][dR][dL][dR][dW] [wrlrlrw]  1.54 µm
30. [dW][dR][dL][dK][dV][dR][dW][dE] [wrlkvrwe]  1.54 µm
31. [dL][dD][dL][dR][dF][dK][dL][dY] [ldlrfkly]  1.55 µm
32. [dF][dK][dI][dK][dL][dK][dW] [fkiklkw]  1.55 µm
33. [dF][dE][dL][dR][dL][dH][dW][dH] [felrlhwh]  1.57 µm
34. [dL][dK][dI][dR][dI][dE][dH][dY] [lkiriehy]  1.57 µm
35. [dW][dW][dR][dV][dK][dL][dR][dW] [wwrvklrw]  1.57 µm
36. [dM][dR][dL][dR][dI][dH][dW] [mrlrihw]  1.58 µm
37. [dW][dK][dL][dW][dL][dR][dW][dW] [wklwlrww]  1.58 µm
38. [dF][dW][dL][dK][dL][dR][dW][dF] [fwlklrwf]  1.63 µm
39. [dW][dR][dF][dK][dV][dR][dW] [wrfkvrw]  1.66 µm
40. [dW][dR][dL][dK][dV][dR][dW][dR] [wrlkvrwr]  1.7 µm
41. [dL][dA][dI][dR][dI][dH][dY] [lairihy]  1.71 µm
42. [dW][dR][dL][dW][dI][dH][dW] [wrlwihw]  1.73 µm
43. [dW][dR][dI][dR][dI][dR][dW] [wririrw]  1.73 µm
44. [dW][dF][dK][dI][dK][dL][dE][dL] [wfkiklel]  1.74 µm
45. [dL][dK][dI][dR][dI][dH][dE][dH] [lkiriheh]  1.75 µm
46. [dW][dR][dL][dR][dI][dW][dW][dW] [wrlriwww]  1.75 µm
47. [dW][dK][dL][dK][dL][dR][dW][dW] [wklklrww]  1.76 µm
48. [dL][dK][dL][dE][dI][dR][dW][dH] [lkleirwh]  1.76 µm
49. [dH][dR][dL][dK][dV][dR][dW][dW] [hrlkvrww]  1.77 µm
50. [dF][dK][dI][dH][dI][dK][dH][dY] [fkihikhy]  1.77 µm
51. [dF][dE][dI][dR][dL][dH][dH][dW] [feirlhhw]  1.78 µm
52. [dF][dH][dL][dE][dI][dR][dH][dW] [fhleirhw]  1.79 µm
53. [dF][dR][dL][dK][dL][dR][dF][dH] [frlklrfh]  1.8 µm
54. [dF][dR][dL][dR][dI][dH][dW][dF] [frlrihwf]  1.81 µm
55. [dL][dK][dI][dR][dI][dH][dL][dH] [lkirihlh]  1.81 µm
56. [dW][dW][dL][dR][dI][dH][dW][dW] [wwlrihww]  1.83 µm
57. [dL][dR][dI][dR][dI][dR][dF][dH] [lririrfh]  1.84 µm
58. [dW][dR][dL][dR][dI][dH][dW][dW] [wrlrihww]  1.88 µm

[dF][dR][dL][dK][dV][dR][dW][dF] [frlkvrwf] was tested, and the “VQIINK Inhibition IC50” value was 1.26 µm and 2.57 µm.
For [dL][dK][dI][dR][dI][dR][dY][dH] [lkiriryh], the “VQIINK Inhibition IC50” value was 1.49 µm and 2.92 µm.

— patent publication US20200216495A1 (ADRX, published 2020)
